In general, Kd refers to the equilibrium constant for the complex coming apart. In general, stoichiometry N refers to the number of molecules, sites or subunits per partner or assembly.

The values below come from paper PMC5014651.

The target in series [1] is NS1B C-terminal domain (residues 141-281 of NS1B, influenza B/Lee/1940) (influenza B virus (B/lee/1940)) (UniProt P03502). Description: NMR titration.
Series [2] has the same target. Description: NMR rotational correlation time.
The target in series [3] is T1, NS1B CTD wt (Influenza B virus (B/Lee/1940), UniProt P03502 141-281).
T1 sequence: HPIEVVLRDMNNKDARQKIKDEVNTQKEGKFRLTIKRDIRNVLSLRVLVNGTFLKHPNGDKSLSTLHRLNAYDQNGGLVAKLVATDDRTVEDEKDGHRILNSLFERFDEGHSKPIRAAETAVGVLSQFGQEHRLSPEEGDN
Nature of the series: fluorescence polarization. Background: In fluorescence polarisation assays a small probe gives low polarisation when free and higher when bound to something large.

Series [4] has as its target NS1A CTD (Influenza A virus (Udorn), UniProt P03495 85-215). Nature of the series: fluorescence polarization.

NS1A CTD, sequence (P03495 85-215): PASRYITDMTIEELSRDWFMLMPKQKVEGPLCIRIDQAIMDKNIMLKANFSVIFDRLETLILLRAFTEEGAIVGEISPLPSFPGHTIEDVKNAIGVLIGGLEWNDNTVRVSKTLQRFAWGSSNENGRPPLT

In turn, “NS1B C-terminal domain (residues 141-281 of NS1B, influenza B/Lee/1940) (from UniProt P03502 141-281) (domain or fragment)” displayed a Kd in series [1] of 600 µM. In series [2], the Kd amounted to 700 µM and the stoichiometry N came out at 2.

As to CGCCUGUAGAGGAUGG (ssRNA) [16 minus ssRNA (antisense)], the Kd in series [3] was determined as 0.58 ± 0.05 µM.

B1: 16-bp dsRNA (dsRNA)
RNA 1: CGCCUGUAGAGGAUGG
RNA 2: CCAUCCUCUACAGGCG
B1: the binding result in series [4] is given as “no binding”. In series [3], the Kd came out at 0.13 ± 0.03 µM.
